The numbers were not newly measured in article PMC12564508, which cites them from elsewhere.

pKd: −log10 of the molar value.

In the data set the target is NS4B (Dengue virus) (UniProt P27909).

Usually pKd stands for −log10 of the Kd, conventionally taken in molar units. Consider NS4A (from UniProt P27909), for which the pKd is 7.30.
